Experimental data published in publication PMC12839305.

Target: RVFV glycoprotein Gn head domain (154–469 aa) (Rift Valley fever virus) (UniProt P21401)
Assay: BLI; […]; 300 s association, 300 s dissociation; […], global 1:1 model; Octet RED96

full-length LRP1 (low-density lipoprotein receptor-related protein 1), native, from porcine lung
Kd: 9.2 nM
